Measurements: patent US20230144608

Legend:
[1] = system: APAGLIVPYN (SEQ ID NO: 5)
[2] = system: IVGRPRHQGV (SEQ ID NO: 7)

Sequence of MMP-9 (chain, as listed by the source): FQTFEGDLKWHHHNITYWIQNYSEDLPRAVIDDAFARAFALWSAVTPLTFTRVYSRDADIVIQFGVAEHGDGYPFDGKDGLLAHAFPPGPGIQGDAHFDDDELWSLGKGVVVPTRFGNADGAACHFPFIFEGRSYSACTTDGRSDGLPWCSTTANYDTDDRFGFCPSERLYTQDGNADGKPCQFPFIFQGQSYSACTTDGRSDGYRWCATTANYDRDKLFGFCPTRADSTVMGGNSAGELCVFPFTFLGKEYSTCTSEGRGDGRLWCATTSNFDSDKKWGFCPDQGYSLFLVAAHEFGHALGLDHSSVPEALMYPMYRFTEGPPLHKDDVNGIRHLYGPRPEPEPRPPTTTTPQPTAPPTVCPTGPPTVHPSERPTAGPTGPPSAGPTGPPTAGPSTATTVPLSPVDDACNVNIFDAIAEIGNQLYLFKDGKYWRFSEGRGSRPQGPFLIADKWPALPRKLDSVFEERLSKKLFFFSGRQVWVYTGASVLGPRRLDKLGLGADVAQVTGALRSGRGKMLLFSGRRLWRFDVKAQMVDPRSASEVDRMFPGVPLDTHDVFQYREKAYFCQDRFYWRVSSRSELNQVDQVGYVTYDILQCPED
Sequence of MMP-10 (chain, as listed by the source): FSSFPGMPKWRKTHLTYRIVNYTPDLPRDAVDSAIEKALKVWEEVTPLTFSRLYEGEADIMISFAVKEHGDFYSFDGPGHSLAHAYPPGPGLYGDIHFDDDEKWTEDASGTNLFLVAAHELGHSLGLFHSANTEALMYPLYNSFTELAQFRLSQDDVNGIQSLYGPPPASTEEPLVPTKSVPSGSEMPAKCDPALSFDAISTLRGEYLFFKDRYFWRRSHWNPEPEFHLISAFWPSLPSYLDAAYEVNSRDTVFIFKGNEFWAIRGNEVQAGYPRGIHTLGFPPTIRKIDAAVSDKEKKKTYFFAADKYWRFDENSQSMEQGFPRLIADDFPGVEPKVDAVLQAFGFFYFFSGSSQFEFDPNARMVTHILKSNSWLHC
Sequence of MMP-8 (chain, as listed by the source): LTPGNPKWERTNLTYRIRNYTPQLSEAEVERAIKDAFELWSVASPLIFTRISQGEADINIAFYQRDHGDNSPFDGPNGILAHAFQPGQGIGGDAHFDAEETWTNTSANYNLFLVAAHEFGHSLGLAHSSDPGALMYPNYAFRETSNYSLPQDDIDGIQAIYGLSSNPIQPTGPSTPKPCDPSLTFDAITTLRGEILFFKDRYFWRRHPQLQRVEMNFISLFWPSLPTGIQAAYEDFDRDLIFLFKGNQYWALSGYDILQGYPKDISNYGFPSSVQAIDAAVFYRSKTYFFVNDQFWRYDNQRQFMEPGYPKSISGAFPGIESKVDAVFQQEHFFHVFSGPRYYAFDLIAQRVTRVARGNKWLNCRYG

Substance | initial rate of cleavage by recombinant protease [1] | initial rate of cleavage by recombinant protease [2] | initial rate of cleavage by recombinant protease (RSKYLATA (SEQ ID NO: 8)) | initial rate of cleavage by recombinant protease (PANLVAPDP (SEQ ID NO: 6)) | initial rate of cleavage by recombinant protease (TQKPLGLS (SEQ ID NO: 4)) | initial rate of cleavage by recombinant protease (PVSLRSGS (SEQ ID NO: 1)) | initial rate of cleavage by recombinant protease (RPLALWRS (SEQ ID NO: 3))
MMP-10 | 1.6 µM/h | 0 µM/h | 0 µM/h | 1.8 µM/h | 0 µM/h | 0 µM/h | 0 µM/h
MMP-8 | 0.5 µM/h | 0 µM/h | 0 µM/h | 7.2 µM/h | 0.1 µM/h | 0.1 µM/h | 0.2 µM/h
MMP-9 | 1.8 µM/h | 0 µM/h | 0 µM/h | 8.8 µM/h | 0.3 µM/h | 6.5 µM/h | 0.2 µM/h
